# How the values were obtained:
# [1] = target: HLA-C*06:02; assay: IEDB peptide-MHC binding, purified MHC/direct/fluorescence; filed as Kd, often an IC50 or EC50 that approximates it; ≥ and ≤ were set here for values at or beyond the usual limits of such assays; conditions: source organism: Entamoeba histolytica HM-1:IMSS
# [2] = target: HLA-A*68:02; assay: IEDB peptide-MHC binding, purified MHC/competitive/fluorescence; filed as Kd, often an IC50 or EC50 that approximates it; ≥ and ≤ were set here for values at or beyond the usual limits of such assays; conditions: source organism: Entamoeba histolytica HM-1:IMSS
# [3] = target: HLA-A*01:01; assay: as above
# [4] = target: HLA-A*26:01; assay: as above
# [5] = target: HLA-B*15:01; assay: as above
# [6] = target: HLA-B*35:01; assay: as above; conditions: source organism: Escherichia coli O139:H28 str. E24377A
# [7] = target: HLA-A*02:03; assay: IEDB peptide-MHC binding, purified MHC/direct/fluorescence; filed as Kd, often an IC50 or EC50 that approximates it; ≥ and ≤ were set here for values at or beyond the usual limits of such assays; conditions: source organism: Maciel virus
# [8] = target: HLA-A*02:11; assay: as above; conditions: source organism: Maciel virus
# [9] = target: HLA-A*02:12; assay: as above; conditions: source organism: Maciel virus
# [10] = target: HLA-A*02:16; assay: as above; conditions: source organism: Maciel virus
# [11] = target: HLA-A*02:19; assay: as above; conditions: source organism: Maciel virus
# [12] = target: HLA-A*03:01; assay: as above; conditions: source organism: Maciel virus
# [13] = target: HLA-A*29:02; assay: as above; conditions: source organism: Maciel virus
# [14] = target: HLA-A*02:01; assay: IEDB peptide-MHC binding, purified MHC/competitive/fluorescence; filed as Kd, often an IC50 or EC50 that approximates it; ≥ and ≤ were set here for values at or beyond the usual limits of such assays
# [15] = target: HLA-A*69:01; assay: as above; conditions: source organism: Lechiguanas virus
# [16] = target: HLA-B*18:01; assay: as above; conditions: source organism: Lechiguanas virus
# [17] = target: HLA-B*27:03; assay: as above; conditions: source organism: Lechiguanas virus
# [18] = target: HLA-B*39:01; assay: as above
# [19] = target: HLA-B*46:01; assay: as above; conditions: source organism: Lechiguanas virus
# [20] = target: HLA-B*51:01; assay: as above; conditions: source organism: Lechiguanas virus
# [21] = target: HLA-B*58:01; assay: as above
# [22] = target: HLA-C*05:01; assay: IEDB peptide-MHC binding, purified MHC/direct/fluorescence; filed as Kd, often an IC50 or EC50 that approximates it; ≥ and ≤ were set here for values at or beyond the usual limits of such assays; conditions: source organism: Salmonella enterica subsp. enterica serovar Typhi str. CT18
# [23] = target: HLA-C*03:03; assay: as above; conditions: source organism: Escherichia coli O139:H28 str. E24377A
# [24] = target: HLA-C*12:03; assay: as above; conditions: source organism: Escherichia coli O139:H28 str. E24377A
# [25] = source organism: Escherichia coli O139:H28 str. E24377A
# [26] = source organism: Lechiguanas virus
# [27] = source organism: Salmonella enterica subsp. enterica serovar Typhi
sequence,measurement,setting,value
CAMFWYHYI,Kd,[1],1260 nM
same,Kd,[2],7.2 nM
EIVAEYITY,Kd,[3]; [25],≥ 20000 nM
same,Kd,[4]; [25],41.6 nM
same,Kd,[5]; [25],156 nM
same,Kd,[6],6.6 nM
HTQAIEGAW,Kd,[7],≥ 20000 nM
same,Kd,[8],≥ 20000 nM
same,Kd,[9],≥ 20000 nM
same,Kd,[10],≥ 20000 nM
same,Kd,[11],≥ 20000 nM
same,Kd,[12],≥ 20000 nM
same,Kd,[13],≥ 20000 nM
same,Kd,[14]; [26],≥ 20000 nM
same,Kd,[4]; [26],≥ 20000 nM
same,Kd,[15],≥ 20000 nM
same,Kd,[5]; [26],≥ 20000 nM
same,Kd,[16],≥ 20000 nM
same,Kd,[17],≥ 20000 nM
same,Kd,[18]; [26],≥ 20000 nM
same,Kd,[19],≥ 20000 nM
same,Kd,[20],≥ 20000 nM
same,Kd,[21]; [26],1.3 nM
IGILHLILW,Kd,[21]; source organism: Influenza A virus (A/Memphis/1/1978(H1N1)),3270 nM
ITDWLNFTL,Kd,[22],213 nM
same,Kd,[3]; [27],977 nM
same,Kd,[14]; [27],2.2 nM
same,Kd,[21]; [27],123 nM
LAAEEILTL,Kd,[23],≤ 1 nM
same,Kd,[24],10 nM
same,Kd,[14]; [25],164 nM
same,Kd,[5]; [25],≥ 20000 nM
same,Kd,[18]; [25],≥ 20000 nM
same,Kd,[21]; [25],748 nM
